Measured values as given in publication PMC3479137.

What was measured:
[1] = molecular target: fHbp subfamily B (Neisseria meningitidis) (UniProt Q9JXV4); conditions: cited from earlier work
[2] = molecular target: fHbp subfamily A (Neisseria meningitidis) (UniProt Q9JXV4); conditions: cited from earlier work
[3] = molecular target: fHbp_10 (1.P10) with D184 replaced by K184 (Neisseria meningitidis); assay: SPR; ProteOn XPR36 (BioRad); fHbp immobilized on a ProteOn GLM sensor chip; increasing concentrations of fH67 injected at 40 µl/min, dissociation 300 seconds; KD calculated with ProteOn manager software; average KD
[4] = molecular target: fHbp_10 (1.P10), factor H binding protein with aspartic acid at position 184 (Neisseria meningitidis) (UniProt E6MV22); assay: as above
Sequence of fHbp_10 (1.P10), factor H binding protein with aspartic acid at position 184 (Neisseria meningitidis) (E6MV22 20-274): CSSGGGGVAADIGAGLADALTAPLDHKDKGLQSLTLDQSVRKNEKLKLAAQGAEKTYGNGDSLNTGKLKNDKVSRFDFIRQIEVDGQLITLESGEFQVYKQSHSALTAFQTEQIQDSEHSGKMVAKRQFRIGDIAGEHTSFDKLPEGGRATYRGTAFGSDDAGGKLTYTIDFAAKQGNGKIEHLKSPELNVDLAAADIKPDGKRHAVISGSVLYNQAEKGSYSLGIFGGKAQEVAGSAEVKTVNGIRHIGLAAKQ

Sequence of factor H (P08603 19-1231): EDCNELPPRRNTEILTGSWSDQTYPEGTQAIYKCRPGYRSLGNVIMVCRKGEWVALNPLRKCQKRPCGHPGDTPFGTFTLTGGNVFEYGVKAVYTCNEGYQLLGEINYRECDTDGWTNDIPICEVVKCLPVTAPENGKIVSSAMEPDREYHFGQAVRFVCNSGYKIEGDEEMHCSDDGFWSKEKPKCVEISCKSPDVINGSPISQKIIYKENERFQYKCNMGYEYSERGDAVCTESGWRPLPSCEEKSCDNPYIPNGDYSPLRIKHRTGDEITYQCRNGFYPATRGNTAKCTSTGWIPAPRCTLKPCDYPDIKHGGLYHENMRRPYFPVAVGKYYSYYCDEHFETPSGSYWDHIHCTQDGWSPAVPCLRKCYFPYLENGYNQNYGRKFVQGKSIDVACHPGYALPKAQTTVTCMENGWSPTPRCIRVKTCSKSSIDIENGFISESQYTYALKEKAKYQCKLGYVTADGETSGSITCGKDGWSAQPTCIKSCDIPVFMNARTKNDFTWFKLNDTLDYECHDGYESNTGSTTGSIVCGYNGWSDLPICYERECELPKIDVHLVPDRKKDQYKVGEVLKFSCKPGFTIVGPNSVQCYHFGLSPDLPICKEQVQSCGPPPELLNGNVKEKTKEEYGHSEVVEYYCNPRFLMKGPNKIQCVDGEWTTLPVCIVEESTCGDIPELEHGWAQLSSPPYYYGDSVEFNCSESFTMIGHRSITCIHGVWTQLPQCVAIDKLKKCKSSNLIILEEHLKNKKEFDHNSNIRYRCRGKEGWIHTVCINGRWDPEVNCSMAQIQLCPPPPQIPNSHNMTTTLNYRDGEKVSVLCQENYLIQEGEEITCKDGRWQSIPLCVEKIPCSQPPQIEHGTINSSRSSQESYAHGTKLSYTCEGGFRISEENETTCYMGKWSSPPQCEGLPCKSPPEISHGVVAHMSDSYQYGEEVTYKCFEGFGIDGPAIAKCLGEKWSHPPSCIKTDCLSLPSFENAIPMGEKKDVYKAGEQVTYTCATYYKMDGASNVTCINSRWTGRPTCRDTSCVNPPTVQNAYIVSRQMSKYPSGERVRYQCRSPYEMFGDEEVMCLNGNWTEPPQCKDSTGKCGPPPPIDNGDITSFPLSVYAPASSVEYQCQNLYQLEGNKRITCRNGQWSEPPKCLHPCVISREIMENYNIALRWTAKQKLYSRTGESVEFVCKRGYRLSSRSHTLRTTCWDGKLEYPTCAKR
Sequence of fHbp subfamily B (Neisseria meningitidis) (Q9JXV4 20-274): as the sequence (E6MV22 20-274) above
Sequence of fHbp subfamily A (Neisseria meningitidis) (Q9JXV4 20-274): as the sequence (E6MV22 20-274) above

Substance	Kd [1] [nM]	Kd [2] [nM]	Kd [3] [nM]	Kd [4] [nM]
factor H (from UniProt P08603)	153	29		
recombinant purified human fH (SCR67) (from UniProt P08603 19-1231) (domain or fragment)			26	17.4
